Reference: paper PMC9437899

Molecular target: neonatal Fc receptor (FcRn) (UniProt P55899)
Test: ELISA; pH 6.0; absorbance read with a plate reader; Kd defined as the concentration of protein that produces 50% of optimal binding response; who was immobilised is not given in the source

Chain of neonatal Fc receptor (FcRn) (P55899 24-365): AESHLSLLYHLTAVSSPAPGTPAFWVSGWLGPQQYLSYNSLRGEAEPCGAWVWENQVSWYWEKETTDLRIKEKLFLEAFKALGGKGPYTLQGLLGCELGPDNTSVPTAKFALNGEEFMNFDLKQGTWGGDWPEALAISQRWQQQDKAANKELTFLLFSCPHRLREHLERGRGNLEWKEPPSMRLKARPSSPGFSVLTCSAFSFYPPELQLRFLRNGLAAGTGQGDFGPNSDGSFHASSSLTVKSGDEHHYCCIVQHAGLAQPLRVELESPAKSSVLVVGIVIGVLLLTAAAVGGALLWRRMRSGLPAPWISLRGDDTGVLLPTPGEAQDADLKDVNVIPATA

Fc-PepH3 conjugate (Fc fusion)
Kd: 95.4 nM
